Reference: patent US20200071404A1 (Astellas, published 2020)

Assays:
[1] = target: T1, human CD73 expressed on cells (cancer cell line NCI-H1373 endogenously expressing human CD73); human T cell … (human, UniProt P21589 27-549); assay: cell-based or functional assay
T1 sequence (looked up): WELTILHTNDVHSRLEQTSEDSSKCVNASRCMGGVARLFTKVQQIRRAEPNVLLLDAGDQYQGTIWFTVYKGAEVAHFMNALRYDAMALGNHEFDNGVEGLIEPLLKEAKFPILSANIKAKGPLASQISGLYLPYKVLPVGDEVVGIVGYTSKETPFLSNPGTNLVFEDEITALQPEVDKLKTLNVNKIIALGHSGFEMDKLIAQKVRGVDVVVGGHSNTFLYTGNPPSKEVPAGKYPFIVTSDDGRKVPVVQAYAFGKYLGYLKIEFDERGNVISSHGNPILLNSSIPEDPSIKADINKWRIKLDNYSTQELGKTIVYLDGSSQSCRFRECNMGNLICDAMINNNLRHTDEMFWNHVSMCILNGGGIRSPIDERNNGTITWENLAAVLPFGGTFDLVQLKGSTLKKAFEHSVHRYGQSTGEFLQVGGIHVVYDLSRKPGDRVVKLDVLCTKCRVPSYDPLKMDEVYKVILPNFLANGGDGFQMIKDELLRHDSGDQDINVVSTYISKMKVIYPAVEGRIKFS

[2] = target: T2, human CD73 protein (R&D Systems, Inc., 5795) (human, UniProt P21589 27-549); assay: cell-based or functional assay
T2 sequence (looked up): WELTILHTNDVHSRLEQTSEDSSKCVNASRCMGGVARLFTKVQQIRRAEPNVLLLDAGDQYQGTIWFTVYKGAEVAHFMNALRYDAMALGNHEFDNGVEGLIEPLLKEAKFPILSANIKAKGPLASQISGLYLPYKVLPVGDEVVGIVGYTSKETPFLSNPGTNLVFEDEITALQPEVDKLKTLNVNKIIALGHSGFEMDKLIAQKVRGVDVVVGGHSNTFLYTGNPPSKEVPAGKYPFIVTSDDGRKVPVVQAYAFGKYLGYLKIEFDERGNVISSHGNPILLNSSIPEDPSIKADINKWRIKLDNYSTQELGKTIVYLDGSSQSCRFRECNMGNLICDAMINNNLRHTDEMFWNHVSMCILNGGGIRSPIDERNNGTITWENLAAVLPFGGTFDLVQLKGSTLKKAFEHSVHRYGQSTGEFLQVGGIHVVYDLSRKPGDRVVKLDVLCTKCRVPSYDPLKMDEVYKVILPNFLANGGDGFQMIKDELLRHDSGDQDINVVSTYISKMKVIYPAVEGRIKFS

[3] = target: T3, human CD73 protein (BPS Bioscience Inc., 71184) (human, UniProt P21589 27-547, limits assumed); assay: ELISA, human CD73 protein immobilised on plate, second run
T3 sequence (looked up): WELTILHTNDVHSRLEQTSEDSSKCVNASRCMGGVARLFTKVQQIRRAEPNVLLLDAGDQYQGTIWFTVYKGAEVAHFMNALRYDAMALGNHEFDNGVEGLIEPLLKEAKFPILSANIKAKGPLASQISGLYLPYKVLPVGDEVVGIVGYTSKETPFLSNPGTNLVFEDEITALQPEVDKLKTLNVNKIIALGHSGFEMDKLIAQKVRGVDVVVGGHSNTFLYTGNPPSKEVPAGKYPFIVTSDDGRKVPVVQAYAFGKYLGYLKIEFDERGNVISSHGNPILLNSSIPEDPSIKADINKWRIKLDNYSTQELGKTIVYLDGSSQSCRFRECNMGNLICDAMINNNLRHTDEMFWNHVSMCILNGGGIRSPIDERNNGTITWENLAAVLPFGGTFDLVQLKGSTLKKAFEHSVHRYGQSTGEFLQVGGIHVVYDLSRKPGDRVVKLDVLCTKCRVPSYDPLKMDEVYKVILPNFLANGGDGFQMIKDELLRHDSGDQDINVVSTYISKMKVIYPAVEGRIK
Description: (§1) In order to evaluate the binding activity of CDS-1, CDS-3, CDS-6, CDS-7, and CDS-8 acquired in Example 1 to human CD73, the ELISA was performed using a human CD73 protein. The human CD73 protein (BPS Bioscience Inc., 71184) diluted in PBS (Life Technologies, Inc.) to have a concentration of 4 μg/mL was added to a MaxiSorp 384-well plate Clear (Thermo Fisher Scientific Inc.) by an amount of 20 μL/well, and then immobilized overnight at a temperature of 4° C. The next day, the resultant was washed with a wash solution (0.05% Tween-20 containing Tris-buffered saline (TBS)) once, Blocking One (Nacalai tesque, Inc.) was added thereto in an amount of 100 μL/well, and the resultant was blocked at room temperature for 30 minutes. The resultant was washed with the wash solution once again, and the purified CDS-1, the purified CDS-3, the purified CDS-6, the purified CDS-7, or the purified CDS-8 prepared in Example 1 was added thereto by an amount of 20 μL/well, respectively. These purified antibodies were diluted using a reaction buffer obtained by mixing the same amount of PBS and Blocking One, and dilution was performed in 12 steps from 10 μg/mL to 56 pg/mL. The resultant was reacted at room temperature for 1 hour, and then washed three times with a wash solution. 20 μL/well of a human IgG-heavy and light chain cross-adsorbed antibody (Bethyl Laboratories Inc., A80-219P) which had been diluted 4000-fold with a reaction buffer was added thereto, and the resultant was reacted at room temperature for 1 hour. The resultant was washed with a wash solution three times, and 20 μL/well of TMB+substrate-chromogen (DAKO Ltd., 51599) was added thereto. […] The values of absorbance at 450 nm and 540 nm were measured by Infinite M200 PRO (TECAN Inc.), and EC₅₀ values of CDS-1, CDS-3, CDS-6, CDS-7, and CDS-8 with respect to the human CD73 protein were calculated. In calculation of the EC₅₀ values, the ordinate represents a difference in the measurement values of absorbance at 450 nm and 540 nm, and the abscissa represents an antibody concentration value.

[4] = target: T1, human CD73 expressed on cells (cancer …); assay: cell-based or functional assay; remark: listed apart in the source
[5] = target: T3, human CD73 protein (BPS Bioscience …); assay: ELISA, human CD73 protein immobilised on plate, first run
Description: as §1, with “respectively.” for “respectively. These purified antibodies were diluted using a reaction buffer obtained by mixing the same amount of PBS and Blocking One, and dilution was performed in 12 steps from 10 μg/mL to 56 pg/mL. The resultant was reacted at room temperature for 1 hour, and then washed three times with a wash solution. 20 μL/well of a human IgG-heavy and light chain cross-adsorbed antibody (Bethyl Laboratories Inc., A80-219P) which had been diluted 4000-fold with a reaction buffer was added thereto, and the resultant was reacted at room temperature for 1 hour. The resultant was washed with a wash solution three times, and 20 μL/well of TMB+substrate-chromogen (DAKO Ltd., 51599) was added thereto.”

B1: anti-human CD73 antibody CDS-1 (antibody, human IgG1, kappa, L234A L235A)
heavy: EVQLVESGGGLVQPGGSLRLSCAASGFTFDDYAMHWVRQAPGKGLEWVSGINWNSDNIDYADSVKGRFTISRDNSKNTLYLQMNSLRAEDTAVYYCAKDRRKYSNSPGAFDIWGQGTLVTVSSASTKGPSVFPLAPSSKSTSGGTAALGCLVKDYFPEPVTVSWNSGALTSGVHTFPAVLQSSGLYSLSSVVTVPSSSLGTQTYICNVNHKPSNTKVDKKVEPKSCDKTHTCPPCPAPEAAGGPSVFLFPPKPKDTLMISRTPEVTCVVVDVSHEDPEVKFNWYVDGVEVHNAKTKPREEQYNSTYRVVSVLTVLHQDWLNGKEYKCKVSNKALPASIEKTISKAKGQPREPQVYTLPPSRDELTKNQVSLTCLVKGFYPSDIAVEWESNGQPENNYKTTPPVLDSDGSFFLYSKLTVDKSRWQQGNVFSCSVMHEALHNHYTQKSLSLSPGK
light: DIQMTQSPSSLSASVGDRVTITCRASQIIGPWLAWYQQKPGKAPKLLIYRASSLESGVPSRFSGSGSGTDFTLTISSLQPEDFATYYCQQYNSYSPWTFGQGTKVEIKRTVAAPSVFIFPPSDEQLKSGTASVVCLLNNFYPREAKVQWKVDNALQSGNSQESVTEQDSKDSTYSLSSTLTLSKADYEKHKVYACEVTHQGLSSPVTKSFNRGEC
notes: also called purified CDS-1
With B1 the “EC50 (ng/mL), IFNγ; recovery of AMP-dependently suppressed human T cell functions” value [1] was 5.8 ng/mL, the “EC50 (ng/mL), Proliferation of T cells; recovery of AMP-dependently suppressed human T cell functions” value [1] was 23.2 ng/mL and the “EC50 (ng/mL), First; inhibition of enzymatic activity of human CD73 protein (adenosine from AMP, LC/MS)” value [2] was 16.8 ng/mL. For the same binder, the “EC50 (ng/mL), Second; inhibition of enzymatic activity of human CD73 protein (adenosine from AMP, LC/MS)” value [2] was 9.2 ng/mL, the EC50 [3] was 0.0088 µg/mL and the “EC50 (ng/mL), First; inhibition of enzymatic activity of human CD73 in NCI-H1373 cells (adenosine from AMP, LC/MS)” value [4] was 785 ng/mL. The “EC50 (ng/mL), Second; inhibition of enzymatic activity of human CD73 in NCI-H1373 cells (adenosine from AMP, LC/MS)” value [4] was 579 ng/mL and the EC50 [5] was 0.0039 µg/mL.

B2: CDS-3, fused form in which human IL-7 is fused to the C terminal side of the heavy chain of CDS-1 (antibody, human IgG1, kappa, L234A L235A)
heavy: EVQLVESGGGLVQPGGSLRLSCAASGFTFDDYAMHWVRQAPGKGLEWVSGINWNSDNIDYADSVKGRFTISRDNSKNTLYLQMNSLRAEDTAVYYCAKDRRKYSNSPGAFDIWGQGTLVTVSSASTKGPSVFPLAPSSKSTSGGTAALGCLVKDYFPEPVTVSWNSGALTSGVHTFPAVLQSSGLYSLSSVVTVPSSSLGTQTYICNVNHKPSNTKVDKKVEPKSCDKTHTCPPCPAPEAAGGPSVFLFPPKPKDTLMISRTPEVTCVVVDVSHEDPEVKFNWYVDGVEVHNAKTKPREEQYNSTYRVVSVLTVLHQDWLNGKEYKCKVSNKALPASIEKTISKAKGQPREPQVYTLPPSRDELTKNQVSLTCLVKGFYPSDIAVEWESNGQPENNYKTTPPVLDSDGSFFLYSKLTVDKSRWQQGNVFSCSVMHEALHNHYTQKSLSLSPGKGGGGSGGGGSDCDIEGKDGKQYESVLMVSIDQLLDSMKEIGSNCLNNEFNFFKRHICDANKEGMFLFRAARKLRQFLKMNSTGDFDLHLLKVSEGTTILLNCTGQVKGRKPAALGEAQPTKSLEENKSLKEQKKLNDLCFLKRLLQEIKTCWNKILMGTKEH
light: DIQMTQSPSSLSASVGDRVTITCRASQIIGPWLAWYQQKPGKAPKLLIYRASSLESGVPSRFSGSGSGTDFTLTISSLQPEDFATYYCQQYNSYSPWTFGQGTKVEIKRTVAAPSVFIFPPSDEQLKSGTASVVCLLNNFYPREAKVQWKVDNALQSGNSQESVTEQDSKDSTYSLSSTLTLSKADYEKHKVYACEVTHQGLSSPVTKSFNRGEC
notes: also called purified CDS-3
For B2, the “EC50 (ng/mL), Second; inhibition of enzymatic activity of human CD73 protein (adenosine from AMP, LC/MS)” value [2] was 19.4 ng/mL, the EC50 [3] was 0.0209 µg/mL and the “EC50 (ng/mL), Second; inhibition of enzymatic activity of human CD73 in NCI-H1373 cells (adenosine from AMP, LC/MS)” value [4] was 455 ng/mL.

B3: CDS-6, fused form in which human IL-7 variant is fused to the C terminal side of the heavy chain of CDS-1 (antibody, human IgG1, kappa, L234A L235A)
heavy: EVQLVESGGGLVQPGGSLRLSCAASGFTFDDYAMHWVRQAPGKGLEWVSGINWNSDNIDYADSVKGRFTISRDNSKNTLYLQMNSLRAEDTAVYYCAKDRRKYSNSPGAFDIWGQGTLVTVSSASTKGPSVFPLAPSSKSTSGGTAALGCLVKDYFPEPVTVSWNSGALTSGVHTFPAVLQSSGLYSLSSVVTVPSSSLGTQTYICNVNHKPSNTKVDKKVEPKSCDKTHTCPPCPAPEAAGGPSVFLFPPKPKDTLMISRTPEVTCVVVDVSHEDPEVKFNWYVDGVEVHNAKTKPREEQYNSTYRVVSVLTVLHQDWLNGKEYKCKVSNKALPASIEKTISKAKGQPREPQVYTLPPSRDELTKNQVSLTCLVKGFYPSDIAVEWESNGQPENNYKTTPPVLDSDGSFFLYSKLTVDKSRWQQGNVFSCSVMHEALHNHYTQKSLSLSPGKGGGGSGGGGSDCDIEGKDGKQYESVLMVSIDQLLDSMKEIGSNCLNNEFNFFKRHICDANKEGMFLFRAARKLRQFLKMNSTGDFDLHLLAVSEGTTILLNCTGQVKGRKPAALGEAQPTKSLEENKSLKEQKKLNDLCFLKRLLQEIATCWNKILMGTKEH
light: DIQMTQSPSSLSASVGDRVTITCRASQIIGPWLAWYQQKPGKAPKLLIYRASSLESGVPSRFSGSGSGTDFTLTISSLQPEDFATYYCQQYNSYSPWTFGQGTKVEIKRTVAAPSVFIFPPSDEQLKSGTASVVCLLNNFYPREAKVQWKVDNALQSGNSQESVTEQDSKDSTYSLSSTLTLSKADYEKHKVYACEVTHQGLSSPVTKSFNRGEC
notes: also called purified CDS-6
With B3 the “EC50 (ng/mL), Second; inhibition of enzymatic activity of human CD73 protein (adenosine from AMP, LC/MS)” value [2] was 20.4 ng/mL, the EC50 [3] was 0.0196 µg/mL and the “EC50 (ng/mL), Second; inhibition of enzymatic activity of human CD73 in NCI-H1373 cells (adenosine from AMP, LC/MS)” value [4] was 678 ng/mL.
